# Experimental data reported in article PMC10519996.
# Columns and labels:
# [1] = tested on: Q2XVP4; assay: cryo-EM structure; single-particle cryo-EM of porcine tubulin incubated with GDP on ice, peak fraction of gel filtration (Superdex 200 Increase 3.2/300), 1-2 μM on graphene grids, no cofactors or depolymerizing reagents; heterodimer maps at 3.6 Å and 3.9 Å; tetramers by 2D and 3D classification …
# [2] = tested on: Q2XVP4; assay: cryo-EM structure; single-particle cryo-EM of porcine tubulin (5 mg/ml) incubated with 1.5 mM GMPCPP on ice for 20-30 min, peak fraction of gel filtration (Superdex 200 Increase 3.2/300), 1-2 μM on graphene grids, no cofactors or depolymerizing reagents; heterodimer map at 3.5 Å; tetramers by 2D …
substance,measurement,setting,value
porcine αβ-tubulin heterodimer,percent of the particles per micrograph that are tubulin hexamers (three heterodimers),[1],"62%, 32%, and 6%"
same,percent of the particles per micrograph that are tubulin tetramers (two heterodimers),[1],"62%, 32%, and 6%"
same,percent of the particles per micrograph that are tubulin hexamers (three heterodimers),[2],"64%, 29%, and 7%"
same,percent of the particles per micrograph that are tubulin tetramers (two heterodimers),[2],"64%, 29%, and 7%"
